Results published in US12622945B2, “Hard tissue therapeutics” (OrthoTrophix, Inc., priority 2020, dated 2026).
“Also recorded” adds a separate entry of the source. Where no end group is shown, it is not given here.

Tests used:
human and rat bone cells = settings: human and rat/murine orthologues; cited from earlier work
[1] = test system: subjects with bilateral knee osteoarthritis; assay: Multicenter, randomized double-blind, placebo-controlled clinical study in bilateral knee osteoarthritis; format: in vivo, human; settings: IA injections
Description: No other doses of drug or placebo were administered.
MRI of both knees were obtained from these 93 subjects at baseline, 6 and/or 12 months. They were sent to the central readers of cartilage thickness and 3D bone shape, respectively. Both central readers were blinded to the treatment assignment and clinical data throughout their analysis process.
For the 3D bone shape analyses, its central reader first made a qualification review of all MRI images from the 93 subjects since they were obtained primarily for cartilage thickness measurement.
MRIs from the remaining 78 subjects (156 knees: 78 Index and 78 Control) were qualified for analysis of 3D shape of the knee joint bones (B-scores of femur, tibia, and patella).
If all clinical inclusion and exclusion criteria were met, MRIs of both knees were obtained and evaluated by a central reader to determine the ICRS grade (gICRS) of each knee as the final screening criterion. […]
Vital signs were also monitored after the injections.
Adverse events and concomitant medications were recorded.
All KOOS subscale scores, WOMAC Total score and subscale scores, MRI-based patello-femoral and tibiofemoral cartilage thickness, and MRI-based subchondral bone area and 3D bone shape were analyzed.
MRI images were provided to central readers for cartilage and subchondral bone measures, respectively. Central readers were blind as to treatment assignment. […]

[2] = in vivo
[3] = molecular target: T1, recombinant human integrin α4β1 (human, UniProt P13612 34-970; P05556 21-728, limits assumed); assay: initial integrin binding screen
T1 construct: Bought from R&D Systems; Named only for the initial screening

[4] = molecular target: T2, recombinant human integrin α6β1 (human, UniProt P23229 24-1011; P05556 21-728, limits assumed); assay: initial integrin binding screen
T2 construct: Bought from R&D Systems; Named only for the initial screening

[5] = molecular target: T3, recombinant human integrin α3β1 (human, UniProt P26006 33-991; P05556 21-728); assay: initial integrin binding screen
T3 construct: Bought from R&D Systems; Named only for the initial screening

[6] = molecular target: T4, recombinant human integrin α10β1 (human, UniProt O75578 23-1122; P05556 21-728, limits assumed); assay: initial integrin binding screen
T4 construct: Bought from R&D Systems; Named only for the initial screening

[7] = molecular target: T5, recombinant human integrin α5β1 (human, UniProt P08648 42-995; P05556 21-728); assay: initial integrin binding screen
T5 construct: Bought from R&D Systems; Named only for the initial screening

[8] = molecular target: T6, recombinant human integrin α9β1 (human, UniProt Q13797 30-981; P05556 21-728, limits assumed); assay: initial integrin binding screen
T6 construct: Bought from R&D Systems; Named only for the initial screening

[9] = molecular target: T7, recombinant human integrin αvβ3 (human, UniProt P06756 31-992; P05106 27-718); assay: competition ELISA; coated integrin, biotinylated RGD-Knottin as competitor (FIG. 2)
T7 construct: Bought from R&D Systems
Description: (§1) The following washing and incubation steps were performed according to manuscript. ABTS substrate buffer was prepared by mixing substrate buffer pH4, 20 g/L ABTS and 3% H_2O_2 in the volumetric ratio 10/0.25/0.02.
(§2) Substrate buffer incubation and absorbance measurements were identical to that for binding ELISA. All experiments were carried out in triplicate.

[10] = molecular target: T8, recombinant human integrin α2β1 (human, UniProt P17301 30-1132; P05556 21-728); assay: competition ELISA with Knottin; reference integrin αvβ3
T8 construct: Bought from R&D Systems
Description: as §1, §2

[11] = molecular target: T9, recombinant human integrin αvβ1 (human, UniProt P06756 31-992; P05556 21-728); assay: as above
T9 construct: Bought from R&D Systems
Description: as §1, §2

[12] = molecular target: T10, recombinant human integrin αvβ8 (human, UniProt P06756 31-992; P26012 43-684); assay: as above
T10 construct: Bought from R&D Systems
Description: as §1, §2

[13] = molecular target: T11, recombinant human integrin αvβ6 (human, UniProt P06756 31-992; P18564 22-707); assay: as above
T11 construct: Bought from R&D Systems
Description: as §1, §2

[14] = molecular target: T12, recombinant human integrin α1β1 (human, UniProt P56199 29-1141; P05556 21-728); assay: as above
T12 construct: Bought from R&D Systems
Description: as §1, §2

[15] = molecular target: T8, recombinant human integrin α2β1; assay: integrin binding screen / competition ELISA with RGD-Knottin
[16] = molecular target: T9, recombinant human integrin αvβ1; assay: as above
[17] = molecular target: T10, recombinant human integrin αvβ8; assay: as above
[18] = molecular target: T11, recombinant human integrin αvβ6; assay: as above
[19] = molecular target: T12, recombinant human integrin α1β1; assay: as above
[20] = molecular target: T7, recombinant human integrin αvβ3; assay: competition ELISA; coated integrin, biotinylated RGD-Knottin as competitor
Description: as §1, §2

[21] = molecular target: T1, recombinant human integrin α4β1; assay: binding study with Knottin; reference integrin αvβ3
[22] = molecular target: T2, recombinant human integrin α6β1; assay: as above
[23] = molecular target: T3, recombinant human integrin α3β1; assay: as above
[24] = molecular target: T4, recombinant human integrin α10β1; assay: as above
[25] = molecular target: T5, recombinant human integrin α5β1; assay: as above
[26] = molecular target: T6, recombinant human integrin α9β1; assay: as above

T7 sequence (P06756 31-992 limits assumed, chain 1 of 2): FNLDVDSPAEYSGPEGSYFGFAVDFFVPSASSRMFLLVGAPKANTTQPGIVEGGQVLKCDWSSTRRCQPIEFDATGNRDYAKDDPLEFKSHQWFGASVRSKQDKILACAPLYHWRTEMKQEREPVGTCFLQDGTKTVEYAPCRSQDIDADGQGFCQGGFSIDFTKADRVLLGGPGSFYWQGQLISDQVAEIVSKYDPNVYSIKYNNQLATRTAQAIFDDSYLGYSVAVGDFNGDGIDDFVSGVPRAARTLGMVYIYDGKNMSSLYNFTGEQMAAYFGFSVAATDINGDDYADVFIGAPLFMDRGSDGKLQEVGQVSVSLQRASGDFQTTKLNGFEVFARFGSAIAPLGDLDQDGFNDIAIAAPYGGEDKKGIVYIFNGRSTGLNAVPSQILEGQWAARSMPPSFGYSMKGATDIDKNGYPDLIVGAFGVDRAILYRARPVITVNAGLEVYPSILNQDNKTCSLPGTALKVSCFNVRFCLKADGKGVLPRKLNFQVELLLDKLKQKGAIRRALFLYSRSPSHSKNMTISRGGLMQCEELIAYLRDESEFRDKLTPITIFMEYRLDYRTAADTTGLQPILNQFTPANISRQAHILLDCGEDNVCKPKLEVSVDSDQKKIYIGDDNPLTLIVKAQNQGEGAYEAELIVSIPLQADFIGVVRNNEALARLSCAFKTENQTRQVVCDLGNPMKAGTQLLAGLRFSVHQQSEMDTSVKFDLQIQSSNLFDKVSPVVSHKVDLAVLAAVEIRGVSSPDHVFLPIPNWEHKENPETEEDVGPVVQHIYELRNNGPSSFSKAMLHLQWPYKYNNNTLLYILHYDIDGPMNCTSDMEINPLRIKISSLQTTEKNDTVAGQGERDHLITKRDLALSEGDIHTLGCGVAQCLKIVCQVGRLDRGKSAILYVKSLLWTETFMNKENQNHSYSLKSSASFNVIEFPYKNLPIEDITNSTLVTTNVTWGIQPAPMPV
T7 sequence (P05106 27-718 limits assumed, chain 2 of 2): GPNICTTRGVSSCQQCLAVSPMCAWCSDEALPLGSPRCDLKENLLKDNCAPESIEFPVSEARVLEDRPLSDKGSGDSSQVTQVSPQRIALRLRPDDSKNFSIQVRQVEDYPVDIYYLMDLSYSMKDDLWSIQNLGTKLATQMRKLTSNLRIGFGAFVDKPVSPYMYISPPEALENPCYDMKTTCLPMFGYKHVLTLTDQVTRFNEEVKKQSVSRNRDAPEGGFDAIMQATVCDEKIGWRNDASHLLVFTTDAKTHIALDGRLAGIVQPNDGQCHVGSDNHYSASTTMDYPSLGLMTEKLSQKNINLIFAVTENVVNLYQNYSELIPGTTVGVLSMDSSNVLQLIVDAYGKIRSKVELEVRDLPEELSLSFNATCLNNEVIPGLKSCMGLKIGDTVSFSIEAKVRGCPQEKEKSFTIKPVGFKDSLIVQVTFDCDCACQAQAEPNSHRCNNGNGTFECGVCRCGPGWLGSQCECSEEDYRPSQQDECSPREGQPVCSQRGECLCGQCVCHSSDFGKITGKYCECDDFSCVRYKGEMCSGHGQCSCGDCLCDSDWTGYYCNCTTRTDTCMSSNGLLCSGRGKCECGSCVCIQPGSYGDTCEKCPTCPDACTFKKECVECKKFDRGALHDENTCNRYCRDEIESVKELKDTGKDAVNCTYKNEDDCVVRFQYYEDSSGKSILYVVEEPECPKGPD
T9 sequence (P06756 31-992 limits assumed, chain 1 of 2): as the sequence (P06756 31-992 limits assumed, chain 1 of 2) above
T9 sequence (P05556 21-728 limits assumed, chain 2 of 2): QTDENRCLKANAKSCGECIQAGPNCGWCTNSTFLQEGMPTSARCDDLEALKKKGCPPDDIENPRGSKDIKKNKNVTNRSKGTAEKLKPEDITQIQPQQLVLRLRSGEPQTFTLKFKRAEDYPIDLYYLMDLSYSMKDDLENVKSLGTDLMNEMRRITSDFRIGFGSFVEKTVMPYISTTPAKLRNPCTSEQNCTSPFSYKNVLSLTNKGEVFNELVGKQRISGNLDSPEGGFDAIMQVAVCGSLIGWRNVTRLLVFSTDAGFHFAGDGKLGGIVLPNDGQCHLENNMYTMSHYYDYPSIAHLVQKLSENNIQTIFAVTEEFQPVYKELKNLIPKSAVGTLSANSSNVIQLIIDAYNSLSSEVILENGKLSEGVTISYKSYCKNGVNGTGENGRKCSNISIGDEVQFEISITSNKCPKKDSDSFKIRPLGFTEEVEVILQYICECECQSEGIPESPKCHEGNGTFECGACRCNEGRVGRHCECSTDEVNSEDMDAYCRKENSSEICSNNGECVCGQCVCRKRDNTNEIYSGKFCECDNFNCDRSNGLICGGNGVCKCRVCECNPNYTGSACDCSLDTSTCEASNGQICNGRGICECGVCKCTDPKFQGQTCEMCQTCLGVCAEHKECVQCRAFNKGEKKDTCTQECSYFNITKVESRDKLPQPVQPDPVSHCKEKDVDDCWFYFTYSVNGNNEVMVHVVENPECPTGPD
T11 sequence (P06756 31-992 limits assumed, chain 1 of 2): as the sequence (P06756 31-992 limits assumed, chain 1 of 2) above
T11 sequence (P18564 22-707 limits assumed, chain 2 of 2): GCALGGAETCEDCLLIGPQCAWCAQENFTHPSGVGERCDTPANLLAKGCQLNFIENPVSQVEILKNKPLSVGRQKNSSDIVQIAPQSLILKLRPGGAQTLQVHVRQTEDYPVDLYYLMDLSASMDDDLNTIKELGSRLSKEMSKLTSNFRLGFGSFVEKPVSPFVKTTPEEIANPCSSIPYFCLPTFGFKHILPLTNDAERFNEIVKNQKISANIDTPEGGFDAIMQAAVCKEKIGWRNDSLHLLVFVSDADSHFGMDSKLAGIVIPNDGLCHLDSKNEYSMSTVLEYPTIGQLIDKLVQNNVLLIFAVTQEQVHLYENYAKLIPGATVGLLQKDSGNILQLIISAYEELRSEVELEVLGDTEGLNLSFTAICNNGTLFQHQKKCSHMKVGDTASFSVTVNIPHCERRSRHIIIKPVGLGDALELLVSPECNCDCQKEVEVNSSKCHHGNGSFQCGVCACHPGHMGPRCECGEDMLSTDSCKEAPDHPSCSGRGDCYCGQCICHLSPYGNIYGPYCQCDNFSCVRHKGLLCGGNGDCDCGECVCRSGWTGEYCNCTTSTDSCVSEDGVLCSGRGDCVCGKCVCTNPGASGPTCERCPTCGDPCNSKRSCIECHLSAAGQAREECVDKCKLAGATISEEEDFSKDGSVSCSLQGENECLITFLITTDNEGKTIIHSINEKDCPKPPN
T10 sequence (P06756 31-992 limits assumed, chain 1 of 2): as the sequence (P06756 31-992 limits assumed, chain 1 of 2) above
T10 sequence (P26012 43-684 limits assumed, chain 2 of 2): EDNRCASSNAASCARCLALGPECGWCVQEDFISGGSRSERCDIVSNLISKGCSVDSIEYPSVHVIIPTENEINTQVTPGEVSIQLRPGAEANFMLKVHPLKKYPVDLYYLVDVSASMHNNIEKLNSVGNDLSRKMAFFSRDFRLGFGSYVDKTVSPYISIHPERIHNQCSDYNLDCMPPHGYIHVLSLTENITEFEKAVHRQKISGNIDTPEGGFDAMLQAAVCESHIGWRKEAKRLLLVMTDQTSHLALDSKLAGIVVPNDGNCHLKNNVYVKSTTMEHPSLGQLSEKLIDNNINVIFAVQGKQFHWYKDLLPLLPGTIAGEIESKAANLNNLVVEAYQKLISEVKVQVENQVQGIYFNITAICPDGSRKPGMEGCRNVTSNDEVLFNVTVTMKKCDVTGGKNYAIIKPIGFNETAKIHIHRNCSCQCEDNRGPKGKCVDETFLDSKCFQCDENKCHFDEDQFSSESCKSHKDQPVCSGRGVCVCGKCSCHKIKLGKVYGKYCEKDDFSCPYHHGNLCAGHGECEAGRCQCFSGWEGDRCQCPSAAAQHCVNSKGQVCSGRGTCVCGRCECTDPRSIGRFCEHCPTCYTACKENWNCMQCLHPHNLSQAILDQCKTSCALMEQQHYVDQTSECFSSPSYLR
T5 sequence (P08648 42-995 limits assumed, chain 1 of 2): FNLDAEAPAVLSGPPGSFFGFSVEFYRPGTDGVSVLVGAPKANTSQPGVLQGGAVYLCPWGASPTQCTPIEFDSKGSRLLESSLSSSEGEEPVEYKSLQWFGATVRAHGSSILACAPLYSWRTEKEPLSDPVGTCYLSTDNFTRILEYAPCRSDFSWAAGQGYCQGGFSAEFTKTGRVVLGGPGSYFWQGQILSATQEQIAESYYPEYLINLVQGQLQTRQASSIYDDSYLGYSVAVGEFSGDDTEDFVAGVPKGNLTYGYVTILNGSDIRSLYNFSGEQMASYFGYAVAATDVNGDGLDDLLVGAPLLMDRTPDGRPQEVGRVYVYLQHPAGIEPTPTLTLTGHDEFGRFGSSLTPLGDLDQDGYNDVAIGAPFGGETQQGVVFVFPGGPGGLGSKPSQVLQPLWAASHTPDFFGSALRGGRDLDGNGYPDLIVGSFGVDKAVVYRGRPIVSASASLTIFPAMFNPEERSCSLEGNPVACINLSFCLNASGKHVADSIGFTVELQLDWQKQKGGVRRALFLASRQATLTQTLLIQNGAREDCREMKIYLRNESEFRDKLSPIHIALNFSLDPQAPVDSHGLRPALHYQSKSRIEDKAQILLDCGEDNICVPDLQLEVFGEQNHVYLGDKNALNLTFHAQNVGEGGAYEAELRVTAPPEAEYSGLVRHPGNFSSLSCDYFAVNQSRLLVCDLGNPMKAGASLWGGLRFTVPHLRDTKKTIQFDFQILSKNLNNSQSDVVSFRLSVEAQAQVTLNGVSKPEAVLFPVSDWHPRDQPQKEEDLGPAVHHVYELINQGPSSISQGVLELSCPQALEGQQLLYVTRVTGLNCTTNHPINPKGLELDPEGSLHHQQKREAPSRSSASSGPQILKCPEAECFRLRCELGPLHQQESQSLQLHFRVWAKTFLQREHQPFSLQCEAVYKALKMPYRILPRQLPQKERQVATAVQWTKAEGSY
T5 sequence (P05556 21-728 limits assumed, chain 2 of 2): as the sequence (P05556 21-728 limits assumed, chain 2 of 2) above

PDLLVRGDNDVPPFSGDGQHFMH [SEQ ID No: 14]
biological activities in the bone cells of the other species (human and rat bone cells): interchangeably show biological activities in the bone cells of the other species

TDLQERGDNDISPFSGDGQPFKD-NH2 (C-terminus assumed) [SEQ ID No: 10]
adverse events [1]: no severe adverse events that were related to the peptide; also recorded: mild or moderate, transient | safety and tolerability [1]: safe and well tolerated | biological effects on cell types, tissues, or organs other than hard tissues [2]: never demonstrated biological effects of the peptide on cell types, tissues, or organs other than cartilage, bone, and dentin

B1: peptide of SEQ ID No: 10 (TPX-100) (peptide)
peptide: TDLQERGDNDISPFSGDGQPFKD-NH2
notes: also called human orthologue
binding result [3]: no binding | binding result [4]: no binding | binding result [5]: no binding | binding result [6]: no binding | binding result [7]: no binding | binding result [8]: no binding | IC50 [9]: ~33 µg/mL | fold by which the binding affinity to αvβ3 is higher than to this integrin [10]: ≥ 300 times | fold by which the binding affinity to αvβ3 is higher than to this integrin [11]: ≥ 300 times | fold by which the binding affinity to αvβ3 is higher than to this integrin [12]: ≥ 300 times | fold by which the binding affinity to αvβ3 is higher than to this integrin [13]: ≥ 300 times | fold by which the binding affinity to αvβ3 is higher than to this integrin [14]: ≥ 300 times | binding result [15]: no binding | binding result [16]: no binding | binding result [17]: no binding | binding result [18]: no binding | binding result [19]: no binding | IC50 [20]: ~30 µg/mL | fold by which the binding affinity to αvβ3 is higher than to this integrin [21]: ≥ 300 times | fold by which the binding affinity to αvβ3 is higher than to this integrin [22]: ≥ 300 times | fold by which the binding affinity to αvβ3 is higher than to this integrin [23]: ≥ 300 times | fold by which the binding affinity to αvβ3 is higher than to this integrin [24]: ≥ 300 times | fold by which the binding affinity to αvβ3 is higher than to this integrin [25]: ≥ 300 times | fold by which the binding affinity to αvβ3 is higher than to this integrin [26]: ≥ 300 times
